Values of other authors as cited in article PMC8699243.
Where two headings read alike, the source gives them in different places.

Tests used:
t-PA (Homo sapiens) [1] = molecular target: t-PA (Homo sapiens) (UniProt P00750)
[2] = molecular target: plasminogen (Homo sapiens) (UniProt P00747)
S100A10 (Homo sapiens) = S100A10 (Homo sapiens) (UniProt P60903)
S100A4 (Homo sapiens) = S100A4 (Homo sapiens) (UniProt P26447)
t-PA (Homo sapiens) [3] = molecular target: t-PA (Homo sapiens) (UniProt P00750); remark: listed apart in the source
[4] = molecular target: plasminogen (Homo sapiens) (UniProt P00747); remark: listed apart in the source

UniProt P00750, sequence (P00750 36-562): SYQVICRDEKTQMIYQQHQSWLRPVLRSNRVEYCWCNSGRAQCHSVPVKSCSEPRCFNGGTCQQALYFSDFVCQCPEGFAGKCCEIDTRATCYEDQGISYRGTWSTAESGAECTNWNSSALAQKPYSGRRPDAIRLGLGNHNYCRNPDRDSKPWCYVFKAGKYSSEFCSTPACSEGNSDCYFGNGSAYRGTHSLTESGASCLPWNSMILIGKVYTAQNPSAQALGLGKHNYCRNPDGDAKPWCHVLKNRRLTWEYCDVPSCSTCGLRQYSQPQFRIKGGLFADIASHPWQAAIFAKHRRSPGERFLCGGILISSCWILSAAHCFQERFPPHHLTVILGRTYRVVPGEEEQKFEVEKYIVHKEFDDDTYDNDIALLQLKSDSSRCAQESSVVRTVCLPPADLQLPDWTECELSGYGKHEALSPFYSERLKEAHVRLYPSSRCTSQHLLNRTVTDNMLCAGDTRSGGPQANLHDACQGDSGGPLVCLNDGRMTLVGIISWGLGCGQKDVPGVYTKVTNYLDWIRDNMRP
UniProt P00747, sequence (P00747 20-810): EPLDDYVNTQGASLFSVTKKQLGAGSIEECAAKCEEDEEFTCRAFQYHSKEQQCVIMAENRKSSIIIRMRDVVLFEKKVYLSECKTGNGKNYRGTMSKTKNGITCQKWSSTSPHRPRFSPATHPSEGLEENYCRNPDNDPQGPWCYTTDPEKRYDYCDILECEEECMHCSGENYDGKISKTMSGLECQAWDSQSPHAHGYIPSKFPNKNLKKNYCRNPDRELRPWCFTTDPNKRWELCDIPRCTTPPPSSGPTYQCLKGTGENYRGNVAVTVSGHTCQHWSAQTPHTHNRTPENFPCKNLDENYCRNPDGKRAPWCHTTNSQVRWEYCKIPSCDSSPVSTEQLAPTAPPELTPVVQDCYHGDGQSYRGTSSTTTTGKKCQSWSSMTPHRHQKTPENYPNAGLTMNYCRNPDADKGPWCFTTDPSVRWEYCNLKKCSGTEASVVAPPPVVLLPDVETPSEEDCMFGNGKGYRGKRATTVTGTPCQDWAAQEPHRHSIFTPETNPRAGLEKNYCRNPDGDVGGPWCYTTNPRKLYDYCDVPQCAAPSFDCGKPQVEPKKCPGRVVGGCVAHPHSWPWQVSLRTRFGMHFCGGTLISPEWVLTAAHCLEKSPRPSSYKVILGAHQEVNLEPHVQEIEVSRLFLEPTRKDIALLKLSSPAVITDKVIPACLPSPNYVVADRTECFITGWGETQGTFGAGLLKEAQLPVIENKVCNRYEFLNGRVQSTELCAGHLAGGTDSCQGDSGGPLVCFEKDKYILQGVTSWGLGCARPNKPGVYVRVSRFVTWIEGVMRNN
UniProt P26447, sequence (P26447 2-101): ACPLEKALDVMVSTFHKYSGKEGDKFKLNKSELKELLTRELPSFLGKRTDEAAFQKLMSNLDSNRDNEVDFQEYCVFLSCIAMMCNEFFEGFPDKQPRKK

In the case of “AIIt (Annexin A2/S100A10 heterotetramer) (from UniProt P07355)”, the Kd (t-PA (Homo sapiens) [1]) is listed as 680 nM and the Kd [2] is listed as 110 nM.

For Annexin A2 (from UniProt P07355), the Kd (S100A10 (Homo sapiens)) is listed as 13 nM and the Kd (S100A4 (Homo sapiens)) is listed as 5000 nM.

In the case of S100A10 (from UniProt P60903), the Kd (t-PA (Homo sapiens) [3]) is given as 450 nM and the Kd [4] is given as 1810 nM.
